Results taken from the Human Domainome abundance scans (Beltran et al. 2025).
± gives the uncertainty stated by the source.

B1: MEF2-activating motif and SAP domain-containing transcriptional regulator, residues 170 to 204; numbered along this chain, Q6ZN01 (parent)
chain: LKLEELTVSELRQQLRLRGLPVSGTKSMLLERMRG

Variants of: B1
Assay: abundance fitness (aPCA) (normalised: wild type 0, dead -1); higher = more abundant; growth selection in yeast, the domain comes from the species named
Settings: Homo sapiens
Work on LKLEELTVSELRQNLRLRGLPVSGTKSMLLERMRG [Q14N] yielded an abundance fitness of -0.441 ± 0.14.
LKLEELTVSELRQCLRLRGLPVSGTKSMLLERMRG [Q14C] gave an abundance fitness of -0.313 ± 0.11.
For LKLEELTVSELRQYLRLRGLPVSGTKSMLLERMRG [Q14Y], the abundance fitness was -0.326 ± 0.25.
Variant LKLEELTVSELRQVLRLRGLPVSGTKSMLLERMRG [Q14V] has an abundance fitness of -0.222 ± 0.061.
LKLEELTVSELRQGLRLRGLPVSGTKSMLLERMRG [Q14G] gave an abundance fitness of -0.35 ± 0.063.
Work on LKLEELTVSELRQTLRLRGLPVSGTKSMLLERMRG [Q14T] yielded an abundance fitness of -0.45 ± 0.16.
With LKLEELTVSELTQQLRLRGLPVSGTKSMLLERMRG [R12T] the abundance fitness was -0.199 ± 0.11.
LKLEELTVSELLQQLRLRGLPVSGTKSMLLERMRG [R12L] gave an abundance fitness of -0.523 ± 0.074.
With LKLEELTVSELQQQLRLRGLPVSGTKSMLLERMRG [R12Q] the abundance fitness was -0.016 ± 0.097.
With LKLEELTVSELCQQLRLRGLPVSGTKSMLLERMRG [R12C] the abundance fitness was -0.387 ± 0.086.
LKLEELTVSELPQQLRLRGLPVSGTKSMLLERMRG [R12P] showed an abundance fitness of -0.602 ± 0.096.
Work on LKLEELTVSELMQQLRLRGLPVSGTKSMLLERMRG [R12M] yielded an abundance fitness of -0.32 ± 0.13.
In the case of LKLEELTVSELDQQLRLRGLPVSGTKSMLLERMRG [R12D], the abundance fitness is reported as -0.488 ± 0.11.
In the case of LKLEELTVSELKQQLRLRGLPVSGTKSMLLERMRG [R12K], the abundance fitness is reported as -0.072 ± 0.09.
LKLEELTVSELAQQLRLRGLPVSGTKSMLLERMRG [R12A] showed an abundance fitness of -0.361 ± 0.11.
LKLEELTVSELSQQLRLRGLPVSGTKSMLLERMRG [R12S] showed an abundance fitness of -0.29 ± 0.087.
LKLEELTVSELNQQLRLRGLPVSGTKSMLLERMRG [R12N] showed an abundance fitness of -0.961 ± 0.49.
For LKLEELTVSELVQQLRLRGLPVSGTKSMLLERMRG [R12V], the abundance fitness was -0.304 ± 0.1.
For LKLEELTVSELGQQLRLRGLPVSGTKSMLLERMRG [R12G], the abundance fitness was -0.593 ± 0.076.
Work on LKLEELTVSELYQQLRLRGLPVSGTKSMLLERMRG [R12Y] yielded an abundance fitness of -0.495 ± 0.21.
Variant LKLEETTVSELRQQLRLRGLPVSGTKSMLLERMRG [L6T] has an abundance fitness of -0.632 ± 0.11.
With LKLEEWTVSELRQQLRLRGLPVSGTKSMLLERMRG [L6W] the abundance fitness was -0.175 ± 0.072.
LKLEERTVSELRQQLRLRGLPVSGTKSMLLERMRG [L6R] gave an abundance fitness of -0.458 ± 0.064.
With LKLEEQTVSELRQQLRLRGLPVSGTKSMLLERMRG [L6Q] the abundance fitness was -0.236 ± 0.07.
LKLEEYTVSELRQQLRLRGLPVSGTKSMLLERMRG [L6Y] gave an abundance fitness of -0.384 ± 0.12.
For LKLEENTVSELRQQLRLRGLPVSGTKSMLLERMRG [L6N], the abundance fitness was -0.166 ± 0.11.
Work on LKLEEVTVSELRQQLRLRGLPVSGTKSMLLERMRG [L6V] yielded an abundance fitness of -0.399 ± 0.078.
In the case of LKLEELTVSFLRQQLRLRGLPVSGTKSMLLERMRG [E10F], the abundance fitness is reported as -0.895 ± 0.39.
LKLEELTVSTLRQQLRLRGLPVSGTKSMLLERMRG [E10T] gave an abundance fitness of -0.782 ± 0.17.
For LKLEELTVSWLRQQLRLRGLPVSGTKSMLLERMRG [E10W], the abundance fitness was -0.728 ± 0.11.
In the case of LKLEELTVSRLRQQLRLRGLPVSGTKSMLLERMRG [E10R], the abundance fitness is reported as -0.552 ± 0.072.
Variant LKLEELTVSALRQQLRLRGLPVSGTKSMLLERMRG [E10A] has an abundance fitness of -0.425 ± 0.1.
In the case of LKLEELTVSSLRQQLRLRGLPVSGTKSMLLERMRG [E10S], the abundance fitness is reported as -0.454 ± 0.072.
LKLEELTVSDLRQQLRLRGLPVSGTKSMLLERMRG [E10D] showed an abundance fitness of -0.402 ± 0.15.
For LKLEELTVSCLRQQLRLRGLPVSGTKSMLLERMRG [E10C], the abundance fitness was -0.678 ± 0.085.
LKLEELTVSKLRQQLRLRGLPVSGTKSMLLERMRG [E10K] showed an abundance fitness of -0.354 ± 0.14.
In the case of LKLEELTVSILRQQLRLRGLPVSGTKSMLLERMRG [E10I], the abundance fitness is reported as -0.781 ± 0.5.
In the case of LKLEELTVSQLRQQLRLRGLPVSGTKSMLLERMRG [E10Q], the abundance fitness is reported as -0.216 ± 0.14.
Variant LKLEELTVSGLRQQLRLRGLPVSGTKSMLLERMRG [E10G] has an abundance fitness of -0.509 ± 0.12.
LKLEELTVSMLRQQLRLRGLPVSGTKSMLLERMRG [E10M] showed an abundance fitness of -0.608 ± 0.11.
For LKLEELTVGELRQQLRLRGLPVSGTKSMLLERMRG [S9G], the abundance fitness was -0.111 ± 0.057.
Work on LKLEELTVAELRQQLRLRGLPVSGTKSMLLERMRG [S9A] yielded an abundance fitness of 0.016 ± 0.054.
Work on LKLEELTVPELRQQLRLRGLPVSGTKSMLLERMRG [S9P] yielded an abundance fitness of -0.291 ± 0.2.
Work on LKLEELTVDELRQQLRLRGLPVSGTKSMLLERMRG [S9D] yielded an abundance fitness of 0.173 ± 0.074.
Variant LKLEELTVKELRQQLRLRGLPVSGTKSMLLERMRG [S9K] has an abundance fitness of 0.084 ± 0.12.
LKLEELTVYELRQQLRLRGLPVSGTKSMLLERMRG [S9Y] showed an abundance fitness of -0.345 ± 0.082.
Variant LKLEELTVCELRQQLRLRGLPVSGTKSMLLERMRG [S9C] has an abundance fitness of -0.347 ± 0.13.
LKLEELTVWELRQQLRLRGLPVSGTKSMLLERMRG [S9W] gave an abundance fitness of -0.142 ± 0.06.
Variant LKLEELTVLELRQQLRLRGLPVSGTKSMLLERMRG [S9L] has an abundance fitness of -0.275 ± 0.1.
For LKLEELTVRELRQQLRLRGLPVSGTKSMLLERMRG [S9R], the abundance fitness was -0.09 ± 0.05.
LKLEELTVVELRQQLRLRGLPVSGTKSMLLERMRG [S9V] showed an abundance fitness of -0.121 ± 0.056.
Variant LKLEELTVNELRQQLRLRGLPVSGTKSMLLERMRG [S9N] has an abundance fitness of 0.182 ± 0.19.
In the case of LKLEELTVMELRQQLRLRGLPVSGTKSMLLERMRG [S9M], the abundance fitness is reported as 0.122 ± 0.1.
Work on LKLEELTVQELRQQLRLRGLPVSGTKSMLLERMRG [S9Q] yielded an abundance fitness of 0.164 ± 0.069.
For LKLEELTVEELRQQLRLRGLPVSGTKSMLLERMRG [S9E], the abundance fitness was 0.181 ± 0.074.
LKLEELTVSELRDQLRLRGLPVSGTKSMLLERMRG [Q13D] gave an abundance fitness of -0.075 ± 0.09.
For LKLEELTVSELRAQLRLRGLPVSGTKSMLLERMRG [Q13A], the abundance fitness was -0.285 ± 0.11.
LKLEELTVSELRFQLRLRGLPVSGTKSMLLERMRG [Q13F] gave an abundance fitness of -0.101 ± 0.21.
Work on LKLEELTVSELRHQLRLRGLPVSGTKSMLLERMRG [Q13H] yielded an abundance fitness of 0.054 ± 0.16.
LKLEELTVSELRWQLRLRGLPVSGTKSMLLERMRG [Q13W] gave an abundance fitness of -0.28 ± 0.072.
With LKLEELTVSELRLQLRLRGLPVSGTKSMLLERMRG [Q13L] the abundance fitness was -0.174 ± 0.061.
With LKLEELTVSELRRQLRLRGLPVSGTKSMLLERMRG [Q13R] the abundance fitness was -0.23 ± 0.095.
LKLEELTVSELRSQLRLRGLPVSGTKSMLLERMRG [Q13S] showed an abundance fitness of -0.203 ± 0.074.
Work on LKLEELTVSELRKQLRLRGLPVSGTKSMLLERMRG [Q13K] yielded an abundance fitness of 0.015 ± 0.079.
With LKLEELTVSELRMQLRLRGLPVSGTKSMLLERMRG [Q13M] the abundance fitness was -0.134 ± 0.097.
LKLEELTVSELRIQLRLRGLPVSGTKSMLLERMRG [Q13I] gave an abundance fitness of -0.036 ± 0.099.
LKLEELTVSELREQLRLRGLPVSGTKSMLLERMRG [Q13E] gave an abundance fitness of -0.1 ± 0.1.
In the case of LKLEELTVSELRVQLRLRGLPVSGTKSMLLERMRG [Q13V], the abundance fitness is reported as -0.11 ± 0.067.
LKLEELTVSELRCQLRLRGLPVSGTKSMLLERMRG [Q13C] gave an abundance fitness of -0.163 ± 0.1.
LKLEELTVSELRGQLRLRGLPVSGTKSMLLERMRG [Q13G] gave an abundance fitness of -0.251 ± 0.061.
